Results as given in paper PMC9646525, “Cryo-EM structure of the SEA complex” (Nature, 2022).

Target: T1, Sea4-TAP (S. cerevisiae (endogenous in yeast …, UniProt P38164 1-1038))
T1 construct: Sea4, S. cerevisiae, endogenous subunit of the SEAC (SEACAT, core), TAP-tagged; Captured by the TAP tag on IgG beads; the complex was released with TEV protease before SDS-PAGE and cryo-EM; Written 'Sea4-TAP'; Four copies in the SEAC; source: endogenous, yeast cells expressing Sea4-TAP; in lysate, purified on IgG-coupled Dynabeads and eluted with TEV protease
T1 sequence (looked up): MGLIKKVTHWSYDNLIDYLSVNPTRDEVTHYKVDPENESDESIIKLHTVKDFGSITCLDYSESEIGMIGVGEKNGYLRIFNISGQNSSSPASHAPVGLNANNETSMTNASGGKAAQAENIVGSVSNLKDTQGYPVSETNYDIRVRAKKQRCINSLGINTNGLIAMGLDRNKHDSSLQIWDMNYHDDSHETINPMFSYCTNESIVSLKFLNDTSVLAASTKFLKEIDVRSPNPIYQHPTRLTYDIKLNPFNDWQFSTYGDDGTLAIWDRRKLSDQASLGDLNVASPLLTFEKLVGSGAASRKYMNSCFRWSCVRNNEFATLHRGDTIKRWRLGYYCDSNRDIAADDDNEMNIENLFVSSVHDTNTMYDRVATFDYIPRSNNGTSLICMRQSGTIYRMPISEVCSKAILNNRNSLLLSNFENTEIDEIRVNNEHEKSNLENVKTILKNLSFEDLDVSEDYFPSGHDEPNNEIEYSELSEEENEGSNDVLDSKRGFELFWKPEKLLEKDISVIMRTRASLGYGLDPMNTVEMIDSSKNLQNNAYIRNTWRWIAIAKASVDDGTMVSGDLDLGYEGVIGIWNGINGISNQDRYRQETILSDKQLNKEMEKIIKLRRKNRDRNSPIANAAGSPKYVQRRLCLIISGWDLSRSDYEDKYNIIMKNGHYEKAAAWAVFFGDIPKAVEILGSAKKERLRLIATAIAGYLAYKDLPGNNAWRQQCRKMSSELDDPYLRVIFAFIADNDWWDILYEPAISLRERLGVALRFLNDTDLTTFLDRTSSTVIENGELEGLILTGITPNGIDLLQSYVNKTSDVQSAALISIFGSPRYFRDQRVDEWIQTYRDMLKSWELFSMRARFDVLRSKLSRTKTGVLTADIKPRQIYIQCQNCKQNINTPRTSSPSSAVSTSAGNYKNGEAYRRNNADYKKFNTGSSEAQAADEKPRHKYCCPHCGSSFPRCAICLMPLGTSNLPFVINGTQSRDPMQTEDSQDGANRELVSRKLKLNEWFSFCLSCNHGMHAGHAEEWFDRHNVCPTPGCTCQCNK
Assay: cryo-EM structure; endogenous SEAC purified from yeast via Sea4-TAP (IgG Dynabeads, TEV elution in 20 mM HEPES-NaOH pH 7.4, 300 mM NaCl, 2 mM DTT), on graphene-oxide-coated grids
Settings: both partners purified

B1: Seh1 (natural protein, UniProt P53011 1-349, looked up)
chain: MQPFDSGHDDLVHDVVYDFYGRHVATCSSDQHIKVFKLDKDTSNWELSDSWRAHDSSIVAIDWASPEYGRIIASASYDKTVKLWEEDPDQEECSGRRWNKLCTLNDSKGSLYSVKFAPAHLGLKLACLGNDGILRLYDALEPSDLRSWTLTSEMKVLSIPPANHLQSDFCLSWCPSRFSPEKLAVSALEQAIIYQRGKDGKLHVAAKLPGHKSLIRSISWAPSIGRWYQLIATGCKDGRIRIFKITEKLSPLASEESLTNSNMFDNSADVDMDAQGRSDSNTEEKAELQSNLQVELLSEHDDHNGEVWSVSWNLTGTILSSAGDDGKVRLWKATYSNEFKCMSVITAQQ
notes: Seh1, S. cerevisiae, endogenous subunit of the SEAC (SEACAT, core); Native protein of the purified complex; six copies in the SEAC; source: endogenous, yeast cells expressing Sea4-TAP; in lysate and co-purified with Sea4-TAP (IgG Dynabeads, TEV elution)
binding result: binds
